Measurements: the supplement of paper PMC9112550, “Optimization of the antimicrobial peptide Bac7 by deep mutational scanning” (BMC Biology, 2022)

tested on: Escherichia coli TOP10; experiment: shrunken log2 fold change of peptide-encoding DNA abundance (4.5 h post-induction vs induction); higher = less antimicrobial activity (less host growth inhibition); conditions: time post-induction: 4.5 h; library: site-saturation at positions 5, 18, 19, 20
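Also: peptides expressed intracellularly from a pBAD plasmid library in pooled LB shake-flask culture, induced with 0.3% L-arabinose, DNA abundance read by NGS, three biological replicates, DESeq2 with apeglm shrinkage.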

| Sequence | shrunken log2 fold change |
| --- | --- |
| RRIRCRPPRLPRPRPRPKYSPRP | -0.898 |
| RRIRDRPPRLPRPRPRPCTPPRP | -0.153 |
| RRIRERPPRLPRPRPRPHMNPRP | -0.337 |
| RRIRKRPPRLPRPRPRPVYHPRP | 0.0002 |
| RRIRTRPPRLPRPRPRPDGAPRP | 0.132 |
| RRIRQRPPRLPRPRPRPRHLPRP | -0.33 |
| RRIRQRPPRLPRPRPRPMFCPRP | 0.0313 |
| RRIRQRPPRLPRPRPRPTEMPRP | -0.149 |
| RRIRSRPPRLPRPRPRPGVIPRP | -0.0412 |
| RRIRLRPPRLPRPRPRPKNSPRP | -0.27 |
| RRIRVRPPRLPRPRPRPVPEPRP | 0.564 |
| RRIRDRPPRLPRPRPRPWNKPRP | -0.117 |
| RRIRIRPPRLPRPRPRPHKLPRP | -0.552 |
| RRIRHRPPRLPRPRPRPYLAPRP | -0.00514 |
| RRIRSRPPRLPRPRPRPDNNPRP | -0.268 |
| RRIRERPPRLPRPRPRPASMPRP | 0.0524 |
| RRIRARPPRLPRPRPRPIGRPRP | 0.00162 |
| RRIRRRPPRLPRPRPRPCALPRP | -0.22 |
| RRIRYRPPRLPRPRPRPQFTPRP | -0.308 |
| RRIRKRPPRLPRPRPRPYHLPRP | -0.0564 |
| RRIRGRPPRLPRPRPRPPFRPRP | 0.681 |
| RRIRYRPPRLPRPRPRPNSIPRP | -0.737 |

| Sequence | shrunken log2 fold change |
| --- | --- |
| RRIRGRPPRLPRPRPRPGSSPRP | 0.028 |
| RRIRPRPPRLPRPRPRPILPPRP | 0.198 |
| RRIRIRPPRLPRPRPRPKIMPRP | -0.549 |
| RRIRYRPPRLPRPRPRPRHKPRP | -0.208 |
| RRIRYRPPRLPRPRPRPKSWPRP | -0.00323 |
| RRIRVRPPRLPRPRPRPEYIPRP | -0.00622 |
| RRIRLRPPRLPRPRPRPFSEPRP | -0.0881 |
| RRIRLRPPRLPRPRPRPGWEPRP | 0.14 |
| RRIRWRPPRLPRPRPRPTTNPRP | 0.217 |
| RRIRPRPPRLPRPRPRPSDAPRP | -0.0621 |
| RRIRFRPPRLPRPRPRPNMEPRP | -0.129 |
| RRIRNRPPRLPRPRPRPHFGPRP | -0.104 |
| RRIRMRPPRLPRPRPRPIWSPRP | 0.0584 |
| RRIRPRPPRLPRPRPRPSWCPRP | 0.108 |
| RRIRHRPPRLPRPRPRPLHSPRP | -0.151 |
| RRIRKRPPRLPRPRPRPNLDPRP | -0.0443 |
| RRIRARPPRLPRPRPRPTWMPRP | 0.221 |
| RRIRFRPPRLPRPRPRPVNDPRP | -0.0167 |
| RRIRSRPPRLPRPRPRPHCKPRP | -0.397 |
| RRIRARPPRLPRPRPRPYPCPRP | -0.417 |
| RRIRLRPPRLPRPRPRPRRWPRP | 0.497 |
| RRIRFRPPRLPRPRPRPMPYPRP | -0.218 |

| Sequence | shrunken log2 fold change |
| --- | --- |
| RRIRKRPPRLPRPRPRPIRQPRP | 0.0556 |
| RRIRIRPPRLPRPRPRPAPTPRP | 0.219 |
| RRIRARPPRLPRPRPRPQQNPRP | 0.166 |
| RRIRERPPRLPRPRPRPLYQPRP | -0.176 |
| RRIRNRPPRLPRPRPRPLFPPRP | 0.643 |
| RRIRFRPPRLPRPRPRPQGDPRP | 0.014 |
| RRIRDRPPRLPRPRPRPFTQPRP | -0.147 |
| RRIRHRPPRLPRPRPRPYISPRP | -0.0543 |
| RRIRLRPPRLPRPRPRPPTDPRP | 0.127 |
| RRIRERPPRLPRPRPRPIFAPRP | 0.21 |
| RRIRFRPPRLPRPRPRPRCRPRP | 0.109 |
| RRIRMRPPRLPRPRPRPWWQPRP | 0.183 |
| RRIRPRPPRLPRPRPRPAYEPRP | 0.0834 |
| RRIRMRPPRLPRPRPRPRLYPRP | 0.212 |
| RRIRARPPRLPRPRPRPNPYPRP | -0.115 |
| RRIRCRPPRLPRPRPRPYPTPRP | -0.517 |
| RRIRERPPRLPRPRPRPCDCPRP | 0.00557 |
| RRIRDRPPRLPRPRPRPAMKPRP | -0.0728 |
| RRIRNRPPRLPRPRPRPKLFPRP | 0.371 |
| RRIRKRPPRLPRPRPRPNYQPRP | -0.0219 |
| RRIRARPPRLPRPRPRPYQMPRP | -0.396 |
| RRIRIRPPRLPRPRPRPEYFPRP | -0.0312 |

| Sequence | shrunken log2 fold change |
| --- | --- |
| RRIRMRPPRLPRPRPRPEPAPRP | 3.51 |
| RRIRQRPPRLPRPRPRPHFCPRP | 0.0177 |
| RRIRWRPPRLPRPRPRPTQWPRP | 0.346 |
| RRIRMRPPRLPRPRPRPMNHPRP | -0.129 |
| RRIRMRPPRLPRPRPRPQKHPRP | 0.159 |
| RRIRGRPPRLPRPRPRPMVMPRP | 0.342 |
| RRIRARPPRLPRPRPRPENEPRP | 0.868 |
| RRIRWRPPRLPRPRPRPSDKPRP | -0.246 |
| RRIRVRPPRLPRPRPRPKATPRP | 0.266 |
| RRIRCRPPRLPRPRPRPTNHPRP | -0.573 |
| RRIRIRPPRLPRPRPRPIKGPRP | -0.068 |
| RRIRPRPPRLPRPRPRPWWPPRP | 0.165 |
| RRIRRRPPRLPRPRPRPPKSPRP | 0.37 |
| RRIRMRPPRLPRPRPRPQFMPRP | -0.241 |
| RRIRVRPPRLPRPRPRPLNYPRP | -0.621 |
| RRIRVRPPRLPRPRPRPYQMPRP | -0.34 |
| RRIRGRPPRLPRPRPRPNFDPRP | 0.491 |
| RRIRARPPRLPRPRPRPGGGPRP | 0.898 |
| RRIRERPPRLPRPRPRPNQWPRP | 0.062 |
| RRIRCRPPRLPRPRPRPSVWPRP | 0.238 |
| RRIRCRPPRLPRPRPRPAWYPRP | -0.0055 |
| RRIRCRPPRLPRPRPRPDTDPRP | -0.0352 |

| Sequence | shrunken log2 fold change |
| --- | --- |
| RRIRPRPPRLPRPRPRPNSYPRP | -0.464 |
| RRIRYRPPRLPRPRPRPPDIPRP | -0.157 |
| RRIRKRPPRLPRPRPRPIIQPRP | 0.0837 |
| RRIRTRPPRLPRPRPRPAPWPRP | 0.254 |
| RRIRDRPPRLPRPRPRPYNYPRP | -0.27 |
| RRIRGRPPRLPRPRPRPRLLPRP | 0.908 |
| RRIRPRPPRLPRPRPRPAVNPRP | -0.103 |
| RRIRVRPPRLPRPRPRPIIYPRP | -0.475 |
| RRIRNRPPRLPRPRPRPHNCPRP | -0.0167 |
| RRIRARPPRLPRPRPRPAYEPRP | 0.0749 |
| RRIRARPPRLPRPRPRPFHGPRP | 0.0917 |
| RRIRNRPPRLPRPRPRPVYWPRP | 0.0175 |
| RRIRPRPPRLPRPRPRPHRSPRP | 0.0256 |
| RRIRWRPPRLPRPRPRPTYGPRP | 0.0553 |
| RRIRFRPPRLPRPRPRPDLVPRP | -0.0465 |
| RRIRNRPPRLPRPRPRPEINPRP | 0.0636 |
| RRIRHRPPRLPRPRPRPCLPPRP | -0.041 |
| RRIRCRPPRLPRPRPRPMLHPRP | -0.378 |
| RRIRCRPPRLPRPRPRPIWHPRP | -0.239 |
| RRIRWRPPRLPRPRPRPSANPRP | 0.559 |
| RRIRYRPPRLPRPRPRPTNNPRP | -1.14 |
